20 molecules from patent publication US20160046944, “APTAMER TO IL-17 AND USE THEREOF” (THE UNIVERSITY OF TOKYO, published 2016) can be followed below.

Changes are numbered by the printed parent chain.

By IC50 is commonly meant the concentration that gives 50% inhibition.

Common to all, as to conditions: chain copies: 2
For series [1], the target named is T1, IL-17 (Homo sapiens, UniProt Q16552 Q16552:24-155).
T1 sequence: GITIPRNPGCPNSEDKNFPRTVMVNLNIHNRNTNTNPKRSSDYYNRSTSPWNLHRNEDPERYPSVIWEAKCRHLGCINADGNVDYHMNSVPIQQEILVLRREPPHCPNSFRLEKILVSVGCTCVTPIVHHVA
Briefly: SPR; IL-17R-Fc on chip. The procedure:
Whether aptamers shown by aptamer Nos. 1-49 inhibit the binding of IL-17 and IL-17 receptor was evaluated by the surface plasmon resonance method.
For the measurement, BIAcore2000 manufactured by BIAcore was used. […] As an analyte, IL-17 (100 or 150 nM) and an aptamer (50 or 100 nM) shown by aptamer No. 1-49 were mixed, maintained for 15 min and after that the mixture was flown.
On the technique in general: In SPR one partner is held on a chip, and binding of the other changes the refractive index at the surface.

The target of series [2] is T1, IL-17. Briefly: cell_activity; NIH3T3 IL-6 release. The procedure: (§1) First, human IL-17 and the aptamer produced in Example 1-1 were pre-incubated at 37° C. for 30 min, and added to NIH3T3 cell (ATCC, CRL1658) together with mouse TNFα (2 ng/mL). Then, after incubation for 24 hr, the culture supernatant was collected, and the amount of IL-6 was measured by BD Cytometric Bead Array (BD Biosciences). The IL-17 inhibitory action of each aptamer was determined from the amount of IL-6. For comparison with the aptamer of the present invention, a conventionally-known aptamer (aptamer No. 50) against IL-17 was used.

The target of series [3] is T2, IL-17 (IL-17A) (Homo sapiens, UniProt Q16552 Q16552:24-155).
T2 sequence: T1 sequence
Briefly: cell_activity; IL-6 release, NIH3T3. The protocol:
as §1

The target in series [4] is T1, IL-17. Briefly: cell_activity; NIH3T3 IL-6 release. The protocol:
First, human IL-17 and the aptamer produced in Example 1-2 were pre-incubated at 37° C. for 30 min, and added to NIH3T3 cell (ATCC, CRL1658) together with mouse TNFα (2 ng/mL). Then, after incubation for 24 hr, the culture supernatant was collected, and the production amount of IL-6 was measured by ELISA method described below. The IL-17 inhibitory action of each aptamer was determined from the production amount of IL-6. For comparison with the aptamer of the present invention, a conventionally-known aptamer (aptamer No. 50) against IL-17 was used.
ELISA method for verifying IL-17 inhibitory action of aptamer: A microtiter plate for ELISA was coated with rat anti-mouse IL-6 antibody (BD Biosciences, 2 μg/mL; 100 μL/well) diluted with PBS, and incubated at 4° C. overnight. The next day, the microtiter plate was washed 3 times with PBS/0.05% Tween 20, and applied blocking with PBS/1% BSA (200 μL/well) at room temperature for 2 hr. Then, the plate was washed 3 times with PBS/0.05% Tween 20. Recombinant mouse IL-6 (BD Biosciences; 100 μL/well) serially diluted with PBS/1% BSA/0.05% Tween 20 or culture supernatants (100 μL/well) were added to the plate. After incubation at room temperature for 2 hr, the plate was washed 3 times with PBS/0.05% Tween 20. Then, 100 μL/well of biotin conjugated rat anti-mouse IL-6 antibody (BD Biosciences) was added to the plate at final dilution of 1/500, and the mixture was reacted at room temperature for 1 hr. After washing 3 times with PBS/0.05% Tween 20, 100 μL/well of alkaline phosphatase conjugated streptavidin was added at final dilution of 1/1000. After 30 min at room temperature, the plate was again washed 4 times with PBS/0.05% Tween 20, and a substrate (1-Step PNPP; Thermo Fisher Scientific Inc; 100 μL/well) was added. After 15 min, aqueous sodium hydroxide solution (2N: 50 μL/well) was added to stop the reaction, and the plate was read on a microtiter reader (Bio-Rad) by using a 405 nm filter.
This is another data set of the same source.

B1: aptamer No. 16 (mixed)
mixed: GGGGUAGCCGGAGGAGTCAGTAAUCGGUACCCC
modifications: 2'-OMe (M), 2'-F (F), PS (S) as marked; uppercase DNA [2'-OMe: 1-5,8,9,11,14,15,22-27,29; 2'-F: 12,18,19,28; PS: 7]
Take B1: the binding signal in series [1] is 27.9 % IL-17/IL-17R binding remaining. In series [2], this molecule displayed an IC50 of 0.25 nM.

B2: aptamer No. 17 (mixed)
mixed: B1 mixed
modifications: 2'-OMe (M), 2'-F (F), PS (S) as marked; uppercase DNA [2'-OMe: 1-5,8,9,11,14,15,22,24-27,29; 2'-F: 12,18,19,28; PS: 7]
Consider B2, for which the binding signal in series [1] was 4.21 % IL-17/IL-17R binding remaining. Further, in series [2], the IC50 was 0.3 nM.

B3: aptamer No. 5 (mixed)
mixed: B1 mixed
modifications: 2'-OMe (M), 2'-F (F), PS (S) as marked; uppercase DNA; SEQ ID NO:2 [1,2,3,4,5,6,7,8,9,11,12,14,15,18,19,22,23,24,25,26,27,28]
For the molecule B3, the binding signal in series [1] was 32.3 % IL-17/IL-17R binding remaining. The molecule further had an IC50 in series [2] of 0.13 nM.

B4: aptamer No. 18 (mixed)
mixed: B1 mixed
modifications: 2'-OMe (M), 2'-F (F), PS (S) as marked; uppercase DNA; (NI) printed, likely (M) [2'-OMe: 1-5,8,9,11,14,15,24-27,29 (26 printed NI, likely M); 2'-F: 12,18,19,28; PS: 7]
In the case of B4, the binding signal in series [1] was 13.6 % IL-17/IL-17R binding remaining. The molecule also came in with a concentration for half-maximal inhibition (IC50) in series [2] of 0.15 nM.

B5: aptamer No. 13 (mixed)
mixed: GGGUAGCCGGAGGAGTCAGTAAUCGGUACCC
modifications: 2'-OMe (M), 2'-F (F) as marked; uppercase DNA; (N) printed, likely (M) [1,2,3,4,7,8,10,11,13,14,17,18,21,23,24,25,26,27,28]
For B5, the binding signal in series [1] was 13.8 % IL-17/IL-17R binding remaining. The molecule further returned an IC50 in series [2] of 0.4 nM.

B6: aptamer No. 30 (mixed)
mixed: B5 mixed with U27T
modifications: g(M)g(M)g(M)u(M)Agc(M)c(M)Gg(M)Agg(M)a(M)gTc(F)agTa(M)Au(M)c(M)g(M)g(M)Ta(M)c(M)c(M)c(M)
Molecule B6 came in with an IC50 in series [3] of 1.49 nM.

B7: aptamer No. 15 (mixed)
mixed: B5 mixed
modifications: 2'-OMe (M), 2'-F (F) as marked; uppercase DNA [2'-OMe: 1-4,7,8,10,13,14,21,23-26,28; 2'-F: 6,11,17,18,27]
Consider B7, for which the binding signal in series [1] was 14.2 % IL-17/IL-17R binding remaining. Besides, half-maximal inhibition in series [2] (IC50) was put at 0.63 nM.
In series [3], GGGUAGCCGGAGGAGTCAGTAAUCGGTACCC (mixed, g(M)g(M)g(M)u(M)Agc(M)c(M)gg(M)Agg(M)a(M)gTc(F)agTa(M)a(M)u(M)c(M)g(M)g(M)TACCC) [aptamer No. 32] displayed a half-maximal inhibitory concentration (IC50) of 4.62 nM. This lies in the single-digit nanomolar range.

B8: aptamer No. 44 (mixed)
mixed: B5 mixed with U27T
modifications: g(M)g(M)g(M)u(M)Agc(M)c(M)Gg(M)agg(M)a(M)gTc(F)AgTa(M)au(M)c(M)g(M)g(M)Ta(M)c(M)c(M)c(M)
Consider B8, for which the concentration for half-maximal inhibition (IC50) in series [3] was 1.83 nM.

B9: aptamer No. 71 (mixed)
RNA: B5 mixed with T16U, T20U
modifications: 2'-OMe (M), 2'-F (F), PS (S) as marked; uppercase DNA [2'-OMe: 1-5,7,8,10,13,14,17,21-26,28-31; 2'-F: 11,16,18,20,27; PS: 6,15,19]
Take B9: in series [4], the IC50 was determined as 5.54 nM. This counts as single-digit nanomolar.

B10: aptamer No. 29 (mixed)
mixed: B5 mixed with U27T
modifications: g(M)g(M)g(M)u(M)Agc(M)c(M)Gg(M)Agg(M)a(M)gTc(F)agTa(M)a(M)u(M)c(M)g(M)g(M)Ta(M)c(M)c(M)c(M)
As to B10, the 50% inhibitory concentration (IC50) in series [3] was found to be 2.53 nM.

B11: aptamer No. 67 (mixed)
mixed: B5 mixed
modifications: 2'-OMe (M), 2'-F (F), PS (S) as marked; uppercase DNA [2'-OMe: 1-5,7,8,10,13,14,17,21-31; 2'-F: 11,18; PS: 6,15,19]
Molecule B11 had an IC50 in series [4] of 5.95 nM.

B12: aptamer No. 42 (mixed)
mixed: B5 mixed with U27T
modifications: g(M)g(M)g(M)u(M)Agc(M)c(M)Gg(M)agg(M)a(M)gTc(F)agTaAu(M)c(M)g(M)g(M)Ta(M)c(M)c(M)c(M)
Take B12: in series [3], the IC50 was 0.51 nM.

B13: aptamer No. 31 (mixed)
mixed: B5 mixed with U27T
modifications: g(M)g(M)g(M)u(M)Ag(S)c(M)c(M)Gg(M)Agg(M)a(M)gTc(F)agTaau(M)c(M)g(M)g(M)TAc(M)c(M)c(M)
Take B13: in series [3], inhibition was half-maximal at 0.3 nM (IC50).

B14: aptamer No. 3 (mixed)
RNA: B5 mixed with T16U, T20U
modifications: 2'-OMe (M), 2'-F (F) as marked; uppercase DNA [1,2,3,4,5,7,8,10,11,13,14,16,17,18,20,21,22,23,24,25,26,27]
For the molecule B14, the binding signal in series [1] is 25.3 % IL-17/IL-17R binding remaining. The molecule further gave an IC50 in series [2] of 2.08 nM.

B15: aptamer No. 19 (mixed)
mixed: B5 mixed
modifications: 2'-OMe (M), 2'-F (F), PS (S) as marked; uppercase DNA [2'-OMe: 1-4,7,8,10,13,14,21-26,28; 2'-F: 17,18,27; PS: 6]
With B15, the binding signal in series [1] is 8.46 % IL-17/IL-17R binding remaining. The molecule also yielded an IC50 in series [2] of 2.78 nM.

B16: aptamer No. 20 (mixed)
mixed: B5 mixed
modifications: 2'-OMe (M), 2'-F (F), PS (S) as marked; uppercase DNA [2'-OMe: 1-4,7,8,10,13,14,21,23-26,28; 2'-F: 17,18,27; PS: 6]
B16: the binding signal in series [1] is 18.5 % IL-17/IL-17R binding remaining. The molecule also had an IC50 in series [2] of 0.37 nM.
The molecule GGGUAGCCGGAGGAGTCAGTAAUCGGTACCC (mixed, g(M)g(M)g(M)u(M)Agc(M)c(M)gg(M)Agg(M)a(M)gTc(F)agTa(M)Au(M)c(M)g(M)g(M)TACCC) [aptamer No. 33] had a 50% inhibitory concentration (IC50) in series [3] of 4.31 nM.

B17: aptamer No. 14 (mixed)
mixed: B5 mixed
modifications: 2'-OMe (M), 2'-F (F) as marked; uppercase DNA [1,2,3,4,6,7,8,10,11,13,14,17,18,21,22,23,24,25,26,27,28]
In the case of B17, in series [1], the binding signal was 16.5 % IL-17/IL-17R binding remaining. Further, the midpoint of inhibition in series [2], the IC50, lay at 0.5 nM.

B18: aptamer No. 43 (mixed)
mixed: B5 mixed with U27T
modifications: g(M)g(M)g(M)u(M)Agc(M)c(M)Gg(M)agg(M)a(M)gTc(F)agTa(M)au(M)c(M)g(M)g(M)Ta(M)c(M)c(M)c(M)
As for B18, the IC50 in series [3] is 0.49 nM.
